For experiment [1], the target named is T1, human PTK7 on cells (tumor cells endogenously expressing PTK7); CHO-hPTK7, CHO-S-hPTK7 and 293T-hPTK7 … (human, UniProt Q13308 31-1070).
T1 sequence (looked up): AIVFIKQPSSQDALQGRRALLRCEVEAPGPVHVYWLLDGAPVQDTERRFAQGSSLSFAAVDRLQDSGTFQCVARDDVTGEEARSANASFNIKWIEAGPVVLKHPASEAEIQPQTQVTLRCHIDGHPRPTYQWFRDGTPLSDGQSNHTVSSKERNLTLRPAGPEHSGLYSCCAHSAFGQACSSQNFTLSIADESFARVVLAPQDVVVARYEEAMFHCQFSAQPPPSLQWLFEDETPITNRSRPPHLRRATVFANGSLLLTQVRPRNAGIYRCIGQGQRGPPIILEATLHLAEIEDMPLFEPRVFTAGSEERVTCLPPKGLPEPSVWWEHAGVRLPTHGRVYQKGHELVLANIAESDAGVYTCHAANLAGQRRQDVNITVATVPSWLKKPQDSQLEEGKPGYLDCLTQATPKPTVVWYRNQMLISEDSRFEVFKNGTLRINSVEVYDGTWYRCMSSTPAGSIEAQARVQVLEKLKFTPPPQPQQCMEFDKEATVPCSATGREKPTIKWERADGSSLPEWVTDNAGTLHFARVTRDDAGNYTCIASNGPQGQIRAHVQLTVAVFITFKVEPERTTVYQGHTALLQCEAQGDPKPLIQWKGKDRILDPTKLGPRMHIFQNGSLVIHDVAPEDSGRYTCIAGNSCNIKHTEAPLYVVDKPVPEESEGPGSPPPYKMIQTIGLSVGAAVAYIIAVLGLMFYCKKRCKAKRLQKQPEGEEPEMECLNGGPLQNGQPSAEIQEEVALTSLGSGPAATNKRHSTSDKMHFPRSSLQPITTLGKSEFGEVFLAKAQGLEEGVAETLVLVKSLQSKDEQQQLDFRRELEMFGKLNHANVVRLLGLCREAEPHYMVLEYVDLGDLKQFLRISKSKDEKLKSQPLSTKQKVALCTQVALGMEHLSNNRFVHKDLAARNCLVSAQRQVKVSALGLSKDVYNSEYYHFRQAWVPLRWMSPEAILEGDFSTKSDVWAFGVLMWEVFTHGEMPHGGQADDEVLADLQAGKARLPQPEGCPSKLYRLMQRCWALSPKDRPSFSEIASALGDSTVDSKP
The experiment is described as follows: cell-based or functional assay.

Experiment [2] concerns the target T1, human PTK7 on cells (tumor cells …). The experiment is described as follows: flow cytometry on CHO-hPTK7 overexpression cells. An excerpt: (§1) A flow cytometer (Beckman, Cytoflex) was used for detecting the affinity of the anti-human PTK7 chimeric and humanized antibodies with human non-small cell lung cancer cells H1299, human lung adenocarcinoma cells H1975, human breast cancer cells T47D, human ovarian cancer cells OVCAR-3 (all purchased from NANJING COBIOER BIOSCIENCES CO., LTD) and CHO-hPTK7 overexpression cells.
(§2) The adherent cells were digested by using a pancreatin (Gibco) solution; a proper amount of cells were counted and taken, washed twice by using 1×PBS, and re-suspended in a 1% BSA solution; and then the cells were transferred into a 96-well deep plate at a density of 50 μl/well; a candidate antibody was diluted by using 1% BSA, then 50 μl of diluted antibody was added into the deep plate containing the cells, and incubated for 40 min at 4° C.; the cells were washed twice by using PBS, then 50 μl of diluted secondary antibody was added into each well, uniformly mixed, and incubated for 30 min at 4° C.; and the cells were washed twice by using PBS, then re-suspended in 400 μl of PBS, and subjected to examination by flow cytometer.
Background: Flow cytometry measures light scatter and fluorescence of single cells or particles in a stream.

The target of experiment [3] is T2, monkey PTK7 protein (extracellular sequence of monkey PTK7 with C-terminal 6×His tag) (monkey).
T2 chain: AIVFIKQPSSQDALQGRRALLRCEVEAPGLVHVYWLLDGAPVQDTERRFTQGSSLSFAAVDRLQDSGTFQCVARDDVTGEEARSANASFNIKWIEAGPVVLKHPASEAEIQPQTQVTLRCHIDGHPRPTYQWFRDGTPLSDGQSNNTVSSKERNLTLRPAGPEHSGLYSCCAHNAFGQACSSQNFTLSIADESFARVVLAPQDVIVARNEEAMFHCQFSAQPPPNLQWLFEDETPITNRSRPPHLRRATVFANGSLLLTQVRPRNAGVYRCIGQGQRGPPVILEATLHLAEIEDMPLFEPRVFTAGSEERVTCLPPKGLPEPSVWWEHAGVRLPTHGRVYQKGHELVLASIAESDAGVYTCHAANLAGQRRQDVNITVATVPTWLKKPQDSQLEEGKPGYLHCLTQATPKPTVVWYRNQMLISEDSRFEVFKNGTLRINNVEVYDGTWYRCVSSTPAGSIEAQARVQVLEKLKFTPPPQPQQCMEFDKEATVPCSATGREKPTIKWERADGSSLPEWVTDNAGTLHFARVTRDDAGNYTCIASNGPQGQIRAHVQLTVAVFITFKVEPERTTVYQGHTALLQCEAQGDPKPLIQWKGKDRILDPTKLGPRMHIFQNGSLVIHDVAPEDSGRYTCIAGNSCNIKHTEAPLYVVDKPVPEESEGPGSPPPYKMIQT
The experiment is described as follows: BLI (ForteBio), antibody on Protein A sensor, monkey PTK7 protein in solution. From the text: (§3) The dynamic affinity of the control Hu24 and candidate antibodies 64A10HZ, 101A6HZ, 4E12HZ and 19C2HZ with human PTK7-His was detected by using ForteBio (Pall life sciences).
ELISA and ForteBio were adopted to detect binding of the anti-human PTK7 chimeric and humanized antibodies to the monkey, mouse and rat PTK7 proteins.
For orientation: BLI is a label-free optical method that tracks binding on a fibre tip over time.

Experiment [4] deals with T3, human PTK7 protein (extracellular sequence of human PTK7 with C-terminal 6×His tag) (human, UniProt Q13308 31-704).
T3 construct: extracellular domain; Expressed transiently in HEK293 cells; also called human PTK7-His; human PTK7-His protein
T3 sequence: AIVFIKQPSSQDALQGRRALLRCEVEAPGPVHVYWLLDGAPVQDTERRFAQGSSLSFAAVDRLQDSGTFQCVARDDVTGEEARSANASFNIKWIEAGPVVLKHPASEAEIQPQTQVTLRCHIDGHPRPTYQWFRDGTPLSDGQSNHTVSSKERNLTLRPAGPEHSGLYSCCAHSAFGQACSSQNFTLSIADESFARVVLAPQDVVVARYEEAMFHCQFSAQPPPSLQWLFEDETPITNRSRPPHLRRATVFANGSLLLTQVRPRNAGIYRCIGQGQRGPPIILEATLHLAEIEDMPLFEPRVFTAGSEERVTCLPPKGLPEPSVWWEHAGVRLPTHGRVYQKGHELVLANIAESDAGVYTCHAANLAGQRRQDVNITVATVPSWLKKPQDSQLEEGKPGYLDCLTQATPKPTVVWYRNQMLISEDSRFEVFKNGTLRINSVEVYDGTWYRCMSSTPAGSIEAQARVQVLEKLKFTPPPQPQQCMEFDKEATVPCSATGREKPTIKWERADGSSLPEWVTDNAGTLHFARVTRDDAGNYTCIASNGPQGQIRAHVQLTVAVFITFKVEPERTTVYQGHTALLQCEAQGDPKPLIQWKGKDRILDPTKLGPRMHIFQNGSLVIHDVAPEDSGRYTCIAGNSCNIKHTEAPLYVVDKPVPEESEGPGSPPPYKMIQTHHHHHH
The experiment in a line: BLI (ForteBio), antibody on Protein A sensor, human PTK7-His 200-3.125 nM, 1:1 global fit.
From the text: as §3

Experiment [5] concerns the target T1, human PTK7 on cells (tumor cells …). The experiment in a line: competition flow cytometry on 293T-hPTK7 cells, streptavidin-PE; competitor: biotin-labelled Hu24.
For experiment [6] the target is unchanged. The experiment in a line: competition flow cytometry on 293T-hPTK7 cells, streptavidin-PE; competitor: biotin-labelled 19C2HZ.
Experiment [7] has the same target. The experiment in a line: competition flow cytometry on 293T-hPTK7 cells, streptavidin-PE; competitor: biotin-labelled 4E12HZ.
The target is the same in experiment [8]. The experiment is described as follows: flow cytometry on OVCAR-3 cells.
From the text: as §1, §2

B1: 19C2HZ (anti-human PTK7 humanized antibody) (antibody, human IgG1, kappa, V domains shown)
VH: QVTLKESGPTLVKPTQTLTLTCTFSGFSLSTSGMGINWIRQPPGKALEWLALIWWDDDKYYNPSLKNRLTITKDTSKNQVVLTMTNMDPVDTATYYCARSLITTAPSDYWGQGTLVTVSS
VL: DIQMTQSPSSLSASVGDRVTITCKASQNVGTAITWYQQRPGKAPKLLIYSASNRYTGVPSRFSGSGSGTDFTLTISNLQPEDLATYFCLQYSDYPLTFGQGTRLEIKR
notes: Human IgG1 heavy chain constant region and human Kappa light chain constant region
As to B1, the “FADU cell endocytosis activity, EC50” value in experiment [1] was determined as 0.134 µg/mL. In addition, in experiment [2], it took 0.201 µg/mL to reach a half-maximal effect (EC50). In experiment [3], this molecule came in with an equilibrium dissociation constant (Kd) of 0.092 nM. In experiment [4], the dissociation constant Kd worked out at 3.7 nM, the koff came out at 0.000728 s⁻¹ and the kon amounted to 197000 M⁻¹ s⁻¹. The “IC50 (read off the curve)” value in experiment [5] was about 0.6 µg/mL. For the same molecule, in experiment [6], the “IC50 (read off the curve)” value is about 0.8 µg/mL.

B2: 4E12HZ (anti-human PTK7 humanized antibody) (antibody, human IgG1, kappa, V domains shown)
VH: QVQLVQSGAEVKRPGASVKVSCKTSGYTFTDYAMHWVRQAPGKGLEWIGVISTYYGNVSYNQKFKGRVTMTRDTSTSTVYMELSSLTSEDTAIYYCARGFAYWGQGTLVTVSS
VL: DIVITQTELSLPVTPGERASISCRSSKSLQKKDGKTYLNWFLQKPGQSPQLLIYLMSTRASGVSDRFSGSGSGTDFTLKISRVEAEDVGVYYCQQLVEYPFTFGQGTKLEIKR
notes: as for B1
With B2, in experiment [1], the “FADU cell endocytosis activity, EC50” value stood at 0.147 µg/mL. In addition, in experiment [2], the 50% effective concentration (EC50) was 0.0414 µg/mL. The Kd in experiment [3] is 9.68 nM. Further, in experiment [4], the dissociation constant Kd stood at 22 nM, the koff is 0.00534 s⁻¹ and the association rate constant (kon) came to 243000 M⁻¹ s⁻¹. In addition, the “IC50 (read off the curve)” value in experiment [7] is about 0.1 µg/mL.

B3: 64A10HZ05 (VH3+VL2) (anti-human PTK7 humanized antibody) (antibody, human IgG1, kappa, V domains shown)
VH: QVQLQESGPGLVKPSETLSLTCTVSGFSLTSYGVYWVRQPPGKGLEWLGVIWTSGNTNYNPSLKSRLTISKDNSKNQVSLKLSSVTAADTAVYYCVKHDGGNYVGVMNYWGQGTLVTVSS
VL: DIQMTQSPSSLSASVGDRVTITCRASQSISDYLHWYQQKPGKAPKLLIKYASQSISGVPSRFSGSGSGSDFTLTISSLQPEDFATYYCQNGHSFPPTFGGGTKVEIKR
notes: as for B1
B3: it took 0.0397 µg/mL to reach a half-maximal effect in experiment [8] (EC50).

A word on the EC50: it is the concentration that produces a half-maximal response. As usually defined, the Kd is the equilibrium constant for the complex coming apart. As a reminder, the koff is the rate constant with which the complex falls apart. As usually defined, the kon is the second-order rate constant of association.
